Measurements published in paper PMC5906670, “Structural basis of epilepsy-related ligand–receptor complex LGI1–ADAM22” (Nature Communications, 2018).
Numbering of substitutions follows the chain as printed. Numbers in names are those of the source.

Legend:
[1] = target: T1, ADAM22 ECD (C-terminal His6 tag) (human, UniProt Q9P0K1-1 26-729, p.Pro81Arg); test: SEC-MALS; co-purified complexes, 1 g L^−1, ENrich SEC 650 column, 20 mM Tris-HCl (pH 7.5), 150 mM NaCl (standard condition); conditions: both partners purified
T1 construct: signal peptide in the construct; ADAM22, human, cDNA as NM_021723 except the p.Pro81Arg polymorphism in the Pro domain; also called ADAM22 ectodomain; source: Expi293F, transient, co-expressed with LGI1 EPTP-His6; purified from culture medium (Ni-NTA, SEC)
T1 sequence (looked up): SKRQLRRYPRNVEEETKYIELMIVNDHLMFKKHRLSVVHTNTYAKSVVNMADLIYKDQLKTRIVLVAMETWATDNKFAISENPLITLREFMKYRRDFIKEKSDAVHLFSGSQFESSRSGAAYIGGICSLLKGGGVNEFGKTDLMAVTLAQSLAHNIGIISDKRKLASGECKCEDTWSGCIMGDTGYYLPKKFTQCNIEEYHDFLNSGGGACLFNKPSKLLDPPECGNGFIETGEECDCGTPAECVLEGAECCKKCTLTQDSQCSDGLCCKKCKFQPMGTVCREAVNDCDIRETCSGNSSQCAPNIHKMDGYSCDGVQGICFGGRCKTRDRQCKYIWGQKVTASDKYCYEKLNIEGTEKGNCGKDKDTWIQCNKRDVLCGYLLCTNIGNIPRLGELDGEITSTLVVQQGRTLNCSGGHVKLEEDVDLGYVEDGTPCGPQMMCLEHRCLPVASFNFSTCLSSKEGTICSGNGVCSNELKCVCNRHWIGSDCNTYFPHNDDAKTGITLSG

[2] = target: the molecule itself; test: SEC-MALS; co-purified complexes, 1 g L^−1, ENrich SEC 650 column, 20 mM Tris-HCl (pH 7.5), 500 mM NaCl
ADAM22 ECD (non-tagged) [3] = target: T2, ADAM22 ECD (non-tagged) (human, UniProt Q9P0K1-1 26-729, p.Pro81Arg); test: as above; conditions: both partners purified
T2 construct: signal peptide in the construct; ADAM22, human, cDNA as NM_021723 except the p.Pro81Arg polymorphism in the Pro domain; source: Expi293F, transient, co-expressed with His6-tagged LGI1; purified as the complex (Ni-NTA, SEC)
T2 sequence (looked up): T1 sequence (looked up)

[4] = target: the molecule itself; test: SEC-MALS; co-purified complexes, 1 g L^−1, ENrich SEC 650 column, 20 mM Tris-HCl (pH 7.5), 150 mM NaCl (standard condition)
[5] = target: the molecule itself; test: crystal structure; LGI1^R470A–ADAM22 ECD complex, co-expressed and co-purified; sitting drop, 20 °C, 10% PEG8000, 0.1 M zinc acetate, 0.1 M MES-NaOH (pH 6.0); 7.13 Å
[6] = target: the molecule itself; test: SEC-SAXS; LGI1–ADAM22 complex (LGI1^R470A) at 5.7 or 8.2 g L^−1, ENrich SEC 650, 20 mM Tris-HCl (pH 7.5), 150 or 500 mM NaCl, 293 K; scattering curve compared with curves of the 2:2 crystal structure and a 3:3 model
ADAM22 ECD (non-tagged) [7] = target: T2, ADAM22 ECD (non-tagged); test: SEC-MALS; co-purified complexes, 1 g L^−1, ENrich SEC 650 column, 20 mM Tris-HCl (pH 7.5), 150 mM NaCl (standard condition); conditions: both partners purified

B1: LGI1 EPTP (domain or fragment, human, UniProt O95970-1 224-557, looked up)
chain: TEFAKSQDLPYQSLSIDTFSYLNDEYVVIAQPFTGKCIFLEWDHVEKTFRNYDNITGTSTVVCKPIVIETQLYVIVAQLFGGSHIYKRDSFANKFIKIQDIEILKIRKPNDIETFKIENNWYFVVADSSKAGFTTIYKWNGNGFYSHQSLHAWYRDTDVEYLEIVRTPQTLRTPHLILSSSSQRPVIYQWNKATQLFTNQTDIPNMEDVYAVKHFSVKGDVYICLTRFIGDSKVMKWGGSSFQDIQRMPSRGSMVFQPLQINNYQYAILGSDYSFTQVYNWDAEKAKFVKFQELNVQAPRSFTHVSINKRNFLFASSFKGNTQIYKHVIVDLSA
notes: LGI1, human, cDNA NM_005097; EPTP domain, residues 224-557; also called C-terminal epitempin-repeat (EPTP) domain of LGI1; EAR domain; source: Expi293F, transient, co-expressed with His6-tagged ADAM22 ECD; purified from culture medium (Ni-NTA, SEC)
stoichiometry N [1]: 1 LGI1 EPTP per ADAM22 ECD

B2: full-length LGI1 (residues 37–557), C-terminal His6 (ligand, human, UniProt O95970-1 37-557, looked up)
chain: PAKPKCPAVCTCTKDNALCENARSIPRTVPPDVISLSFVRSGFTEISEGSFLFTPSLQLLLFTSNSFDVISDDAFIGLPHLEYLFIENNNIKSISRHTFRGLKSLIHLSLANNNLQTLPKDIFKGLDSLTNVDLRGNSFNCDCKLKWLVEWLGHTNATVEDIYCEGPPEYKKRKINSLSSKDFDCIITEFAKSQDLPYQSLSIDTFSYLNDEYVVIAQPFTGKCIFLEWDHVEKTFRNYDNITGTSTVVCKPIVIETQLYVIVAQLFGGSHIYKRDSFANKFIKIQDIEILKIRKPNDIETFKIENNWYFVVADSSKAGFTTIYKWNGNGFYSHQSLHAWYRDTDVEYLEIVRTPQTLRTPHLILSSSSQRPVIYQWNKATQLFTNQTDIPNMEDVYAVKHFSVKGDVYICLTRFIGDSKVMKWGGSSFQDIQRMPSRGSMVFQPLQINNYQYAILGSDYSFTQVYNWDAEKAKFVKFQELNVQAPRSFTHVSINKRNFLFASSFKGNTQIYKHVIVDLSA
notes: LGI1, human, cDNA NM_005097; 'full length, residues 37–557' (without the signal peptide); PDB 5Y31 holds the R470A mutant of the same limits; also called LGI1^WT; source: Expi293F, transient, co-expressed with non-tagged ADAM22 ECD; purified from culture medium (Ni-NTA, SEC)
stoichiometry N [2]: 2 LGI1 chains in the assembly
stoichiometry N (ADAM22 ECD (non-tagged) [3]): 1 LGI1 per ADAM22 ECD (2:2)
stoichiometry N [4]: 3 LGI1 chains in the assembly

B3: LGI1^R470A (residues 37–557), C-terminal His6 (ligand, human, UniProt O95970-1 37-557, looked up)
chain: B2 chain with R434A
notes: LGI1, human, cDNA NM_005097, residues 37-557; also called LGI1 (in the 'LGI1–ADAM22 complex'); source: Expi293F, transient, co-expressed with non-tagged ADAM22 ECD; purified as the complex (Ni-NTA, SEC)
stoichiometry N [5]: 2 LGI1 chains in the assembly
stoichiometry N [6]: 3 LGI1 chains in the assembly

B4: LGI1^R474Q (residues 37–557), C-terminal His6 (ligand, human, UniProt O95970-1 37-557, looked up)
chain: B2 chain with R438Q
notes: LGI1, human, cDNA NM_005097, residues 37-557; R474Q is a human ADLTE mutation; source: Expi293F, transient, co-expressed with ADAM22 ECD; purified as the complex (Ni-NTA, SEC)
stoichiometry N (ADAM22 ECD (non-tagged) [7]): 1 LGI1 per ADAM22 ECD
